Reference: publication PMC3682517, “Engineering A-kinase Anchoring Protein (AKAP)-selective Regulatory Subunits of Protein Kinase A (PKA) through Structure-based Phage Selection*^([image sbox.jpg])” (The Journal of Biological Chemistry, 2013)

What was measured:
[1] = target: T1, wild-type RII(1–45) D/D domain fragment (UniProt P13861 1-45, biotinylated when used as AlphaScreen tracer (site not stated)); test: AlphaScreen or HTRF; competition binding: biotinylated R subunit D/D domain 0.3 nM (tracer), GST-AKAP RII-binding region 3 nM (target), increasing untagged R subunit D/D domain; IC50 approximates Kd; 20 mM HEPES pH 7.2, 100 mM NaCl, 0.1% BSA; 1 h at 4 °C; one-site competition fit; conditions: both partners purified
T1 construct: PKA regulatory subunit RIIα, residues 1-45, docking and dimerization (D/D) domain; His6 tag is PreScission-cleavable; also called WT RII; RII D/D domain; not shown: V5, C-terminal, kept

[2] = target: T2, R_(Select)AKAP18(1–45) D/D domain fragment (UniProt P13861 2-46, Val-3 in R_(Select)AKAP18 | Leu-5 in R_(Select)AKAP18 | Asp-10 in each …, biotinylated when used as AlphaScreen tracer (site not stated)); test: as above; conditions: both partners purified
T2 construct: PKA regulatory subunit RIIα, residues 1-45 (D/D domain), variant selected by phage display against AKAP18; changes at positions 3, 5, 10 and 14; not shown: V5, C-terminal, kept

Binder	Kd [1] [nM]	Kd [2] [nM]
GST-AKAP2 anchoring helix fragment (domain or fragment) GDSPLVDDPLEYQAGLLVQNAIQQAIAEQVDKAVSKTSRDGAEQQGPEATVEEAEAAAFG	12.5 ± 1.8	–
GST-AKAP18 anchoring helix fragment (domain or fragment) NGGEPDDAELVRLSKRLVENAVLKAVQQYLEETQNKNKPGEGSSVKTEAADQNGNDNENNRK	16.3	162
